In this assay the target is cysteine-free TauRD (Tau repeat domain, residues 244-371, C291A/P301L/C322A/V337M) (UniProt P10636-8 244-371, C291A | P301L | C322A | V337M). In words: cell-based or functional assay.
Chain of cysteine-free TauRD (Tau repeat domain, residues 244-371, C291A/P301L/C322A/V337M) (P10636 561-688 C608A/P618L/C639A/V654M): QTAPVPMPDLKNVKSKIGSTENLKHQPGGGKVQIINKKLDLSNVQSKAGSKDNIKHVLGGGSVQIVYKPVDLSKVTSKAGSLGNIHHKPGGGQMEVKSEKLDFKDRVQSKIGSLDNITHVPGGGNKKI

B1: Clusterin (Clu; apolipoprotein J), recombinant with Strep tag (CluStrep) (natural protein, human)
chain 1: DQTVSDNELQEMSNQGSKYVNKEIQNAVNGVKQIKTLIEKTNEERKTLLSNLEEAKKKKEDALNETRESETKLKELPGVCNETMMALWEECKPCLKQTCMKFYARVCRSGSGLVGRQLEEFLNQSSPFYFWMNGDRIDSLLENDRQQTHMLDVMQDHFSRASSIIDELFQDRFFTREPQDTYHYLPFSLPHRRPHFFFPKSRIVR
chain 2: SLMPFSPYEPLNFHAMFQPFLEMIHEAQQAMDIHFHSPAFQHPPTEFIREGDDDRTVCREIRHNSTGCLRMKDQCDKCREILSVDCSTNNPSQAKLRRELDESLQVAERLTRKYNELLKSYQWKMLNTSSLLEQLNEQFNWVSRLANLTQGEDQYYLRVTTVASHTSDSDVPSGVTEVVVKLFDSDPITVTVPVEVSRKNPKFMETVAEKALQEYRKKHREE
modifications: N-glycosylated | N-glycosylated
As to B1, the “seeding capacity in TauRD-YT cells of the soluble fraction of a TauRD aggregation reaction made without Clu, after adding Clu” value was roughly 5 fold and the “specific seeding activity (FRET-positive TauRD-YT cells per ng TauRD) of the Clu-containing supernatant against the supernatant without Clu” value is roughly 40 fold.

Source of the values: paper PMC8357826, “The extracellular chaperone Clusterin enhances Tau aggregate seeding in a cellular model” (Nature Communications, 2021).
